Common to all, as to test: BLI
Experiment [1] concerns the target WRAIR-5004 (rhesus macaque).
Experiment [2] addresses WRAIR-5011 (rhesus macaque).
Experiment [3] addresses WRAIR-5001 (rhesus macaque).
Experiment [4] addresses WRAIR-5001 (rhesus macaque | human).
Experiment [5] concerns the target WRAIR-5005 (rhesus macaque).

Chain of WRAIR-5011 (rhesus macaque) (VH, as listed by the source, chain 1 of 2): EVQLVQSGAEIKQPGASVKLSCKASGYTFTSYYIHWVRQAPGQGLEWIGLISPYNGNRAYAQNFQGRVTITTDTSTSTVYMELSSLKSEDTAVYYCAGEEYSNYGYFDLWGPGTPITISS
Chain of WRAIR-5011 (rhesus macaque) (VL, as listed by the source, chain 2 of 2): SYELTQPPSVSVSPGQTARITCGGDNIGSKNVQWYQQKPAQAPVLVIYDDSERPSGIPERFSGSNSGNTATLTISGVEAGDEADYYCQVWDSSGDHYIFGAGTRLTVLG
Chain of WRAIR-5005 (rhesus macaque) (VH, as listed by the source, chain 1 of 2): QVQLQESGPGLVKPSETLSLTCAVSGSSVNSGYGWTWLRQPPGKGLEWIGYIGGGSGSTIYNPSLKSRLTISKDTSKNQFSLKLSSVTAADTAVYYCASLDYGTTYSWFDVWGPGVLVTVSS
Chain of WRAIR-5005 (rhesus macaque) (VL, as listed by the source, chain 2 of 2): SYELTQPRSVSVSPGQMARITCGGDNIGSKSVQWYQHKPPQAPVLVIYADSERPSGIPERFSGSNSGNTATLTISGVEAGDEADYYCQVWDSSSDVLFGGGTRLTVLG
Chain of WRAIR-5004 (rhesus macaque) (VH, as listed by the source, chain 1 of 2): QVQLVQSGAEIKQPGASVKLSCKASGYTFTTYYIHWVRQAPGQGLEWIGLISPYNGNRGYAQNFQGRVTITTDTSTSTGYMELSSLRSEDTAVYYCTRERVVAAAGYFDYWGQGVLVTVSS
Chain of WRAIR-5004 (rhesus macaque) (VL, as listed by the source, chain 2 of 2): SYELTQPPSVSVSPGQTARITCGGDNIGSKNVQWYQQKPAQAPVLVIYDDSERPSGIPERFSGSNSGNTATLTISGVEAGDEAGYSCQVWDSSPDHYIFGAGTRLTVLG
Chain of WRAIR-5001 (rhesus macaque) (VH, as listed by the source, chain 1 of 2): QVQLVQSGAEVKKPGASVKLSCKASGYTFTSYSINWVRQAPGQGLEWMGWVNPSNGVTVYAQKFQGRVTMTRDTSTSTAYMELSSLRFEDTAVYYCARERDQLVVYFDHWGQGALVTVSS
Chain of WRAIR-5001 (rhesus macaque) (VL, as listed by the source, chain 2 of 2): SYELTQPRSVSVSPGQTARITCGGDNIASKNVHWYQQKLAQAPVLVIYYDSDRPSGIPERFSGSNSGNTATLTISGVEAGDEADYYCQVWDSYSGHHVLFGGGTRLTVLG

For SARS-CoV-1 RBD (domain or fragment), the equilibrium dissociation constant (Kd) stood at 28.9 nM in experiment [1], 12.7 nM in experiment [2], 3.45 nM in experiment [4] and 154 nM in experiment [5]. The koff in experiment [1] was 0.00458 s⁻¹; in experiment [2], 0.0014 s⁻¹; in experiment [3], 0.00061 s⁻¹; in experiment [5] it was 0.00318 s⁻¹. Moreover, the kon in experiment [1] was found to be 158000 M⁻¹ s⁻¹; in experiment [2], 110000 M⁻¹ s⁻¹; in experiment [3], 177000 M⁻¹ s⁻¹; in experiment [5] it was 20700 M⁻¹ s⁻¹.

For the origin of these results see article PMC10764318.
